Measured values from patent US20070254831A1 (published 2007).
Bridge positions count the residues as written; N and C are the ends. Square brackets hold non-standard residues; d marks the D form. Ends that are not written are not given here.

B1: Peptide No. 193 (peptide)
peptide: RFXTGHFXLYPC
modifications: Pen at 3; X at 8 = (3S)-3-amino-2-oxo-1-piperidine-acetic acid; disulfide; C-terminal amide
B2: Peptide No. 80 (as printed in Table 18) (peptide)
peptide: RFXTGHFXLYPC
modifications: Pen at 3; X at 8 = 3-amino-N-1-carboxymethyl-2,3,4,5-tetrahydro-1H-[1]-benzazepine-2-one (drawing CHEM-US-00083); disulfide; C-terminal amide
B3: Peptide No. 181 (peptide)
peptide: RFXTGHFXLYPC
modifications: Pen at 3; X at 8 = 3-amino-N-1-carboxymethyl-2,3,4,5-tetrahydro-1H-[1]-benzazepine-2-one (drawing CHEM-US-00084); disulfide; C-terminal amide
B4: Peptide No. 198 (peptide)
peptide: RFXTGHFXLYPC
modifications: Pen at 3; X at 8 = 5,5-bicyclic dipeptide mimic (drawing CHEM-US-00086); disulfide; C-terminal amide
B5: Peptide No. 239 (peptide)
peptide: RFXTGHFXLYPC
modifications: Pen at 3; X at 8 = 3(S)-3-amino-2-oxo-1-azepine acetic acid; NMeLeu at 9; disulfide; C-terminal amide
B6: Peptide No. 176 (peptide)
peptide: QRFVTGHFG[dP]YYPANGP-NH2
modifications: N-terminus assumed
SMILES: CC(C)[C@H](NC(=O)[C@H](Cc1ccccc1)NC(=O)[C@H](CCCNC(=N)N)NC(=O)[C@@H](N)CCC(N)=O)C(=O)N[C@H](C(=O)NCC(=O)N[C@@H](Cc1c[nH]cn1)C(=O)N[C@@H](Cc1ccccc1)C(=O)NCC(=O)N1CCC[C@@H]1C(=O)N[C@@H](Cc1ccc(O)cc1)C(=O)N[C@@H](Cc1ccc(O)cc1)C(=O)N1CCC[C@H]1C(=O)N[C@@H](C)C(=O)N[C@@H](CC(N)=O)C(=O)NCC(=O)N1CCC[C@H]1C(N)=O)[C@@H](C)O
B7: Peptide No. 190 (peptide)
peptide: QRFVTGHFG[dP]WYPINGP-NH2
modifications: N-terminus assumed
SMILES: CC[C@H](C)[C@H](NC(=O)[C@@H]1CCCN1C(=O)[C@H](Cc1ccc(O)cc1)NC(=O)[C@H](Cc1c[nH]c2ccccc12)NC(=O)[C@H]1CCCN1C(=O)CNC(=O)[C@H](Cc1ccccc1)NC(=O)[C@H](Cc1c[nH]cn1)NC(=O)CNC(=O)[C@@H](NC(=O)[C@@H](NC(=O)[C@H](Cc1ccccc1)NC(=O)[C@H](CCCNC(=N)N)NC(=O)[C@@H](N)CCC(N)=O)C(C)C)[C@@H](C)O)C(=O)N[C@@H](CC(N)=O)C(=O)NCC(=O)N1CCC[C@H]1C(N)=O
B8: Peptide No. 167 (peptide)
peptide: QRFVTGHFG[dP]LYPVANGP-NH2
modifications: N-terminus assumed
SMILES: CC(C)C[C@H](NC(=O)[C@H]1CCCN1C(=O)CNC(=O)[C@H](Cc1ccccc1)NC(=O)[C@H](Cc1c[nH]cn1)NC(=O)CNC(=O)[C@@H](NC(=O)[C@@H](NC(=O)[C@H](Cc1ccccc1)NC(=O)[C@H](CCCNC(=N)N)NC(=O)[C@@H](N)CCC(N)=O)C(C)C)[C@@H](C)O)C(=O)N[C@@H](Cc1ccc(O)cc1)C(=O)N1CCC[C@H]1C(=O)N[C@H](C(=O)N[C@@H](C)C(=O)N[C@@H](CC(N)=O)C(=O)NCC(=O)N1CCC[C@H]1C(N)=O)C(C)C
notes: printed with -VA- before NGP
B9: Peptide No. 210 (peptide)
peptide: RFVTGHFG[dP]WYPANGP-NH2
modifications: N-terminus assumed
SMILES: CC(C)[C@H](NC(=O)[C@H](Cc1ccccc1)NC(=O)[C@@H](N)CCCNC(=N)N)C(=O)N[C@H](C(=O)NCC(=O)N[C@@H](Cc1c[nH]cn1)C(=O)N[C@@H](Cc1ccccc1)C(=O)NCC(=O)N1CCC[C@@H]1C(=O)N[C@@H](Cc1c[nH]c2ccccc12)C(=O)N[C@@H](Cc1ccc(O)cc1)C(=O)N1CCC[C@H]1C(=O)N[C@@H](C)C(=O)N[C@@H](CC(N)=O)C(=O)NCC(=O)N1CCC[C@H]1C(N)=O)[C@@H](C)O
B10: Peptide No. 251 (peptide)
peptide: RFXTGXFGGLYPC
modifications: not fully specified; Pen at 3; ThienylAla at 6; Sar at 9; NMeLeu at 10; disulfide; C-terminal amide

Molecular target: T1, soluble human FcRn (human, UniProt P55899 24-297; P61769 21-119, biotinylated (Sulfo-NHS-LC-Biotin) in the ELISA; amine-coupled to CM5 chip in SPR)
T1 construct: also called shFcRn; biotinylated shFcRn
Test: SPR, pH 6
Experimental: (§1) The following steps were performed to cross-link soluble human or cynomolgus FcRn to the dextran surface of a CM5 sensor chip (Biacore AB, Uppsala, Sweden) by an amine coupling reaction involving 1-ethyl-(3-dimethylaminopropyl)-carbodiimide hydrochloride (EDC) (Biacore AB, Uppsala, Sweden) and N-hydroxysuccinimide (NHS) (Biacore AB, Uppsala, Sweden) as recommended by Biacore (BIAapplications Handbook, version AB, section 4.2, Biacore AB, Uppsala, Sweden). […] Residual sites on the FcRn flow cell were blocked with 1 M ethanolamine hydrochloride pH 8.5 (Biacore AB, Uppsala, Sweden). A control flow cell was blocked with ethanolamine for reference subtraction. For analysis of the monomeric peptides, FcRn was coated to a final density of 4000-5000 response units (RU). For analysis of the peptide dimers, FcRn was coated to a density of 2000-2500 RU. All SPR measurements were performed using a BIACORE 3000 Instrument (Biacore AB Uppsala, Sweden). For measurements done at either pH 6 or pH 7.4, experiments were performed in 50 mM phosphate, 100 mM sodium chloride, 0.01% surfactant P20 (Biacore AB, Uppsala, Sweden).
(§2) Ten, 2-fold dilutions of the peptide were injected over the FcRn-CM5 chip at a rate of 20 μl/min for 2 min. The peptide was dissociated from the chip for 2.5 minutes with buffer. Any remaining peptide was removed from the chip with a 30 second injection of HBS-P buffer (Biacore AB, Uppsala, Sweden) at a rate of 30 μl/min. Sensorgrams were generated and analyzed using BiaEval software version 3.1 (Biacore AB, Uppsala, Sweden). The equilibrium RU observed for each injection was plotted against concentration. The equilibrium KD values were derived by analysis of the plots using the steady state affinity model included in the BiaEval software.

Row | Kd [µM] | Binder
1 | 1 | QRFXTGHXGGLYPCNGP (Pen at 4; 4-amino-Phe at 8; disulfide; C-terminal amide) [Peptide No. 55]
2 | 18 | QRFXTGHXGGLYPCNGP (Pen at 4; 4-methoxy-Phe at 8; disulfide; C-terminal amide) [Peptide No. 56]
3 | 70 | QRFXTGHXGGLYPCNGP (Pen at 4; pentafluoro-Phe at 8; disulfide; C-terminal amide) [Peptide No. 57]
4 | 19 | QRFXTGHXGGLYPCNGP (Pen at 4; 3-PyridylAla at 8; disulfide; C-terminal amide) [Peptide No. 59]
5 | 11 | QRFXTGHXGGLYPCNGP (Pen at 4; 2-napthylalanine at 8; disulfide; C-terminal amide) [Peptide No. 62]
6 | 0.2 | QRFXTGHXGGLYPCNGP (Pen at 4; 2-MePhe at 8; disulfide; C-terminal amide) [Peptide No. 88]
7 | 0.67 | QRFXTGHXGGLYPCNGP (Pen at 4; 3-MePhe at 8; disulfide; C-terminal amide) [Peptide No. 89]
8 | 0.2 | QRFXTGHXGGLYPCNGP (Pen at 4; 4-MePhe at 8; disulfide; C-terminal amide) [Peptide No. 90]
9 | 270 | QRFXTGHXGGLYPCNGP (Pen at 4; PheNHAc at 8; disulfide; C-terminal amide) [Peptide No. 94]

Molecular target: T1, soluble human FcRn
Test: ELISA, competitor human IgG
Experimental: (§3) The wells were coated with 100 μl/well of 1 μg/ml biotinylated-shFcRn in Buffer A. The plate was sealed and incubated at 37° C. for 2 hours. Afterwards, the plate washed with 200 μl/well of Buffer B (Buffer B: 100 mM MES pH 6, 150 mM NaCl, 0.5% BSA IgG-free (Jackson ImmunoResearch, West Grove, Pa.), 0.05% Tween-20). […] To allow for mixing, the plate was rocked for 2 minutes, sealed and incubated at 37° C. for 2 hours. […] The plate was covered, incubated for 30 minutes at room temperature and washed 4 times with 200 μl/well of ice-cold buffer B. SureBlue TMB substrate solution (100 μl/well, KPL, Gaithersburg, Md.) was added and the plate was allowed to incubate at room temperature until color developed, which took 5 to 10 minutes. Once color developed, 100 μl/well of TMB stop solution (KPL, Gaithersburg, Md.) was added and the absorbance was measured at 450 nm. The data was plotted as absorbance vs. peptide concentration to derive the inhibitory concentration 50% (IC₅₀) values.

Row | IC50 [µM] | Binder
10 | 7.3 | B1
11 | 159 | B2
12 | 1.2 | B3
13 | 23 | B4
14 | 2.2 | RFXTGHFXLYPC (Pen at 3; X at 8 = 6,5-bicyclic dipeptide mimic; disulfide; C-terminal amide) [Peptide No. 204]
15 | 0.62 | B5

Molecular target: T1, soluble human FcRn
Test: ELISA, competitor human IgG
Remark: another data set of the same source

Row | IC50 [µM] | Binder
16 | 230 | B6
17 | 49 | B7
18 | 93 | B8
19 | 100 | B9

Molecular target: T1, soluble human FcRn
Test: ELISA, competitor human IgG
Remark: another data set of the same source
Experimental: as §3

Row | IC50 [µM] | Binder
20 | 40 | RFXTGKFGGLYPC (Pen at 3; Sar at 9; NMeLeu at 10; disulfide; C-terminal amide) [Peptide No. 255]
21 | 5.5 | RFXTGRFGGLYPC (Pen at 3; Sar at 9; NMeLeu at 10; disulfide; C-terminal amide) [Peptide No. 256]
22 | 1.2 | RFXTGXFGGLYPC (Pen at 3; 3PyridylAla at 6; Sar at 9; NMeLeu at 10; disulfide; C-terminal amide) [Peptide No. 250]
23 | 45 | B10

Molecular target: T1, soluble human FcRn
Test: SPR, pH 7.4
Experimental: as §1, §2

Row | Kd [µM] | Binder
24 | 1.1 | RFXTGKFGGLYPC (Pen at 3; Sar at 9; NMeLeu at 10; disulfide; C-terminal amide) [Peptide No. 255]
25 | 0.5 | RFXTGRFGGLYPC (Pen at 3; Sar at 9; NMeLeu at 10; disulfide; C-terminal amide) [Peptide No. 256]
26 | 0.26 | RFXTGXFGGLYPC (Pen at 3; 3PyridylAla at 6; Sar at 9; NMeLeu at 10; disulfide; C-terminal amide) [Peptide No. 250]
27 | 3 | B10
28 | 0.073 | RFXTGXFGGLYPC (Pen at 3; 4GuanylPhe at 6; Sar at 9; NMeLeu at 10; disulfide; C-terminal amide) [Peptide No. 257]

Molecular target: T1, soluble human FcRn
Test: ELISA, competitor human IgG
Remark: another data set of the same source
Experimental: as §3

Row | IC50 [µM] | Binder
29 | 26 | QRFXTGHWGGLYPCNGP (Pen at 4; disulfide; C-terminal amide) [Peptide No. 95]
30 | 100 | QRFXTGHXGGLYPCNGP (Pen at 4; 4-methoxy-Phe at 8; disulfide; C-terminal amide) [Peptide No. 56]
31 | 90 | QRFXTGHXGGLYPCNGP (Pen at 4; 2-pyridylalanine at 8; disulfide; C-terminal amide) [Peptide No. 58]
32 | 60 | QRFXTGHXGGLYPCNGP (Pen at 4; 3-PyridylAla at 8; disulfide; C-terminal amide) [Peptide No. 59]
33 | 90 | QRFXTGHXGGLYPCNGP (Pen at 4; 2-napthylalanine at 8; disulfide; C-terminal amide) [Peptide No. 62]
34 | 1 | QRFXTGHXGGLYPCNGP (Pen at 4; 2-MePhe at 8; disulfide; C-terminal amide) [Peptide No. 88]
35 | 4.1 | QRFXTGHXGGLYPCNGP (Pen at 4; 3-MePhe at 8; disulfide; C-terminal amide) [Peptide No. 89]
36 | 4 | RFXTGHXGGLYPC (Pen at 3; 2-Cl-Phe at 7; disulfide; C-terminal amide) [Peptide No. 221]
37 | 3.7 | RFXTGHXGGLYPC (Pen at 3; 3-Cl-Phe at 7; disulfide; C-terminal amide) [Peptide No. 222]
38 | 32 | RFXTGHXGGLYPC (Pen at 3; 3,3-Di-Phe at 7; disulfide; C-terminal amide) [Peptide No. 224]

Molecular target: T1, soluble human FcRn
Test: SPR, pH 6
Remark: another data set of the same source
Experimental: as §1, §2

Row | Kd [µM] | Binder
39 | 1.3 | RFXTGKFGGLYPC (Pen at 3; Sar at 9; NMeLeu at 10; disulfide; C-terminal amide) [Peptide No. 255]
40 | 0.5 | RFXTGRFGGLYPC (Pen at 3; Sar at 9; NMeLeu at 10; disulfide; C-terminal amide) [Peptide No. 256]
41 | 0.064 | RFXTGXFGGLYPC (Pen at 3; 3PyridylAla at 6; Sar at 9; NMeLeu at 10; disulfide; C-terminal amide) [Peptide No. 250]
42 | 2 | B10
43 | 0.074 | RFXTGXFGGLYPC (Pen at 3; 4GuanylPhe at 6; Sar at 9; NMeLeu at 10; disulfide; C-terminal amide) [Peptide No. 257]

Molecular target: T1, soluble human FcRn
Test: ELISA, competitor human IgG
Remark: another data set of the same source
Experimental: as §3

Row | IC50 [µM] | Binder
44 | > 125 | QRFCTAHFGGLYPCNGP-NH2 (disulfide 4-14 (inferred)) [SEQ ID NO:28]
45 | > 125 | QRFCTGAFGGLYPCNGP-NH2 (disulfide 4-14 (inferred)) [SEQ ID NO:29]
46 | > 125 | QRFCTGHAGGLYPCNGP-NH2 (disulfide 4-14 (inferred)) [SEQ ID NO:30]
47 | > 125 | QRFCTGHFGALYPCNGP-NH2 (disulfide 4-14 (inferred)) [SEQ ID NO:32]
48 | > 125 | QRFCTGHFGGLAPCNGP-NH2 (disulfide 4-14 (inferred)) [SEQ ID NO:34]
